Experimental data from patent US12527847B1, “Compositions and methods for reducing blood ethanol concentration through alcohol dehydrogenase and acetaldehyde scavengers” (Goa Therapeutics Corporation, priority 2025, dated 2026).

Experiments:
[1] = In vitro reduction of EtOH by ADH and AcH scavengers (NAD/NADH-based enzymatic assay, 340 nm); assay type: biochemical; conditions: 200 U ADH, 455 mg scavenger mixture, pH 7.4, 37° C., 30 minutes
Method: (§1) An in vitro study was conducted to evaluate the effect of a combined formulation of ADH and AcH scavengers on the reduction of EtOH and AcH concentrations. The study was designed to assess the enzymatic conversion of EtOH to AcH by ADH and the subsequent removal of AcH by scavengers. The experiment was performed using enzyme preparation from yeast (Saccharomyces cerevisiae).
(§2) The following materials and reagents were used: EtOH 99.9% pure, analytical grade and ADH purified from Saccharomyces cerevisiae (500 U/mg protein) (SEQ ID NO: 1, see Table 1). AcH scavenger-containing composition (total 455 mg): Thiamine hydrochloride (Vitamin B1): 100 mg; Glutathione (GSH): 15 mg; NAC (N-Acetyl-Cysteine) OR L-Cysteine: 200 mg; α-Lipoic acid: 40 mg; Pyridoxine hydrochloride (Vitamin B6): 100 mg and buffer Solution: 100 mM sodium phosphate buffer, pH 7.4.
(§3) The experiment was conducted in triplicate with appropriate controls to ensure reproducibility. […]
(§4) EtOH concentration was measured using a NAD/NADH-based enzymatic assay with a spectrophotometer at 340 nm. AcH concentration was measured using a modified Hantzsch reaction assay, which detects AcH at 412 nm.

[2] = In vitro AcH concentration after ADH and AcH scavengers (modified Hantzsch reaction assay, 412 nm); assay type: biochemical; conditions: 100 mM EtOH start, 200 U ADH, 455 mg scavenger mixture, pH 7.4, 37° C., 30 minutes
Method: as §1, §2, §3, §4

[3] = In vivo blood EtOH concentration in rodents after oral EtOH; design: species or system Sprague-Dawley rats; conditions: rat blood, 2 g/kg EtOH oral, ADH 600 U/kg IP
Method: The study was performed to evaluate the efficacy of a combined formulation of ADH and AcH scavengers in reducing blood EtOH and AcH concentrations in an in vivo rodent model.
12 male Sprague-Dawley rats (200 to 250 g), housed under standard conditions (12-hour light/dark cycle, 22±2° C.) were administered with 2 g/kg EtOH orally via gavage.
Groups (n=3): Group 1 (Control): EtOH only (no ADH or scavengers). Group 2: EtOH+ADH (600 U/kg, intraperitoneally). Group 3: EtOH+AcH scavenger-containing composition. Group 4 (Combined): EtOH+ADH (600 U/kg, IP)+AcH scavenger-containing composition.
Blood samples were collected from the tail vein at 0, 15, 30, 60, and 120 minutes post-EtOH administration. EtOH concentration was measured using a NAD/NADH-based enzymatic assay.

[4] = system: ADH purified from Saccharomyces cerevisiae; assay: Enzyme kinetics of ADH with AcH scavengers (Michaelis-Menten, NADH production at 340 nm); assay type: biochemical; conditions: pH 7.4, 37° C., 5 min incubation
Method: ADH purified from Saccharomyces cerevisiae (500 U/mg protein) was used. EtOH Concentrations: 5, 10, 20, 50, 100, 200 mM. Reaction Volume: 1 mL with 100 mM sodium phosphate buffer (pH 7.4). 37° C., 5 min incubation. NADH production measured at 340 nm using a spectrophotometer. Two groups: a) control ADH+EtOH; and b) ADH+EtOH+AcH scavenger mixture.

ADH = assay: Stability and degradation profile of ADH in the presence of AcH scavengers over time; assay type: physicochemical, Saccharomyces cerevisiae; conditions: 37° C., gentle shaking
Method: Conditions: 37° C. for up to 60 min with gentle shaking (100 rpm), ADH activity assessed via NADH production (340 nm). AcH scavenger-containing composition (total 455 mg): Thiamine hydrochloride (Vitamin B1): 100 mg; Glutathione (GSH): 15 mg; NAC (N-Acetyl-Cysteine) OR L-Cysteine: 200 mg; α-Lipoic acid: 40 mg; Pyridoxine hydrochloride (Vitamin B6): 100 mg and buffer Solution: 100 mM sodium phosphate buffer, pH 7.4.

HepG2 Liver Cells [5] = assay: HepG2 cell viability under EtOH exposure (MTT assay); assay type: cell-based; conditions: HepG2, 100 mM EtOH for 24 hours
Method: (§5) Cells were exposed to 100 mM EtOH for 24 hours. Group 1 (Control): EtOH only; Group 2: EtOH+ADH; Group 3: EtOH+AcH scavenger-containing composition; and Group 4 (Combined): EtOH+ADH+AcH scavenger-containing composition.
(§6) Cell viability was detected by MTT assay (absorbance at 570 nm). ROS (Reactive Oxygen Species) was detected by DCFH-DA assay (fluorescence at 488 nm).

HepG2 Liver Cells [6] = assay: HepG2 ROS under EtOH exposure (DCFH-DA assay); assay type: cell-based; conditions: HepG2, 100 mM EtOH for 24 hours
Method: as §5, §6

B1: ADH: ADH purified from Saccharomyces cerevisiae (500 U/mg protein), SEQ ID NO: 1 (protein, listed as Saccharomyces cerevisiae)
chain: MSTAVAVLTSNADTDIFAKPVAGVDGSHVIDAAAVFGLGKETVVDALKDYKTGATTPAVAQKLGVEGAKALVGVPQKVESNDFFVAKAKDAGTEVIVGGMGGVGLSAIGASLKPGYELDKAKIEVASKLAAGAKVTVITPQCGHEVIVGVPPDSQNLSMRIAQLGGKSPFTKEKDLNYFAVEKAKELGATGSKIINLIMGKVMPEGQKIHLGHEIVGDLGVVTKDAASGKLPIISIGHEAVKNAVKVLENAELEGLTKEGAKVTVVGNPQIYSDDHVAVAGTSLSTLNKLLDAIKKADTSKPIQEVLSDKAKEVGIEEGLMTTVHAITGAAGAASALPFGVTAAL
With B1 the “EtOH Final” value ([1]; 100 mM EtOH start) was 85.8 mM, the “EtOH Reduction (%)” value ([1]; 100 mM EtOH, 1 mL) was 14.2% and the “AcH Final” value [2] was 235 µM. The “EtOH concentration (% of control)” value ([3]; 0 min) was 95 % of control, the “EtOH concentration (% of control)” value ([3]; 15 min) was 85.2 % of control and the “EtOH concentration (% of control)” value ([3]; 30 min) was 75.8 % of control. For the same molecule, the “EtOH concentration (% of control)” value ([3]; 60 min) was 68 % of control, the “EtOH concentration (% of control)” value ([3]; 120 min) was 44.8 % of control and the Vmax ([4]; EtOH 5-200 mM) was 105.2 µmol/min. The kcat ([4]; EtOH 5-200 mM) was 105.2, the Km ([4]; substrate EtOH 5-200 mM) was 32.5 mM and the “ADH activity (% of t = 0)” value (ADH; 30 min) was 87 % of t = 0. For the same molecule, the “ADH activity (% of t = 0)” value (ADH; 60 min) was 62 % of t = 0, the “Cell viability (%)” value (HepG2 Liver Cells [5]; MTT) was 67.1% and the “Overall Impact on Viability (in words)” value (HepG2 Liver Cells [5]; results interpretation) was “Viability increases”. The “ROS (% of control)” value (HepG2 Liver Cells [6]; DCFH-DA, control = EtOH only) was 85.6 % of control and the “ROS Impact (in words)” value (HepG2 Liver Cells [6]; results interpretation) was “Moderate ROS”.
